Assay results: patent publication US20190315837A1

Molecular target: His-tagged human Her2/Neu protein (Her2-His) (human) (UniProt P04626)
Assay: Octet (BLI), Her2-His on penta-His biosensor, antibody in solution

Question: human IgG1 control (antibody) was tested. Which Kd did it give?
Answer: < 1 pM

Question: And the koff?
Answer: < 1e-07 s⁻¹

Question: What about the kon of the same substance?
Answer: 1.04e+06 M⁻¹ s⁻¹
